This experiment deals with GHSR-1a. The experiment in a line: 125I-ghrelin saturation binding on GHSR-1a membranes (typical value of membrane stock).

The values below come from patent US20050085421A1.

Consider 125I-ghrelin (peptide), for which the Bmax stood at 6 fmol/µg.
